From PMC8720176
Residue numbers refer to the chain shown, from its start. Like-named read-outs stand apart in the source and are kept apart here.

T1: T88E-Δ30-EXO5 (Homo sapiens, UniProt Q9H790 31-373, T88E;del1-30)
T1 sequence: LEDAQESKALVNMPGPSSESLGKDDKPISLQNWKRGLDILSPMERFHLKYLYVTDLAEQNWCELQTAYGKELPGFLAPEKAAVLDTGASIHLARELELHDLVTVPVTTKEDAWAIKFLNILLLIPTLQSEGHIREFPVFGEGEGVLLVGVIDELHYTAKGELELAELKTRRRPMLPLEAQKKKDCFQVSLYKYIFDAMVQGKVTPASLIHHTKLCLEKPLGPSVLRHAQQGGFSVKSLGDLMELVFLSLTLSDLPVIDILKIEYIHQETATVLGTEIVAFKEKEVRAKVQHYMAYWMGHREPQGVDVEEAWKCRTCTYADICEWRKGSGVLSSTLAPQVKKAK

T2: Δ30-EXO5 WT (Homo sapiens, UniProt Q9H790 31-373, del1-30)
T2 sequence: T1 sequence with E58T


Columns and labels:
Experiment in all cases: X-ray crystallography
T88E-Δ30-EXO5 = molecular target: T1, T88E-Δ30-EXO5
Δ30-EXO5 WT [1] = molecular target: T2, Δ30-EXO5 WT
Δ30-EXO5 WT [2] = molecular target: T2, Δ30-EXO5 WT; remark: listed apart in the source

| Binder | binding result (T88E-Δ30-EXO5) | binding result (Δ30-EXO5 WT [1]) | binding result (Δ30-EXO5 WT [2]) |
| --- | --- | --- | --- |
| TTTTTTTTTTTT (ssDNA, 3' thiol modifier C3 S-S) [dT12] | binds | binds | – |
| ATTGCTGAAGGG (ssDNA) [12mer] | – | – | binds |
